This passage reports Ki and Km results from article PMC3286859.

In series [1] the target is recombinant Drosophila cathepsin B (Drosophila). Description: enzyme inhibition assay.
The target in series [2] is Drosophila cathepsin L purified from fly head extracts (Drosophila melanogaster (endogenous in fly heads)). Description: enzyme inhibition assay.
Series [3] relates to Cc1cc(=O)oc2cc(NC(=O)[C@H](CCCNC(=N)N)NC(=O)[C@H](Cc3ccccc3)NC(=O)OCc3ccccc3)ccc12. The series can be described thus: purified protein. As to conditions: 100 mM sodium acetate pH 5.0, 1 mM EDTA, 2 mM DTT, no crammer added.

Take “Drosophila melanogaster crammer, recombinant wild type (monomer) (natural protein)”: the Ki (commonly a measure of affinity in units of concentration, obtained from inhibition or displacement) in series [1] came to 0.79 µM; in series [2], 0.00136 µM.
Take crammer Y20A (natural protein): the Ki in series [1] came to 5.4 µM.
crammer C72S (natural protein): the Ki in series [1] worked out at 1.87 µM.
For “Drosophila cathepsin L (Drosophila melanogaster)”, the Km (as a rule, the concentration of substrate that gives half-maximal velocity) in series [3] amounted to 3.85 µM.
With crammer F16A (natural protein), in series [1], the Ki came to 2.26 µM.
The same measure, in the same setting: as for crammer Y12A (natural protein), the figure is 18.9 µM.
